The values that follow come from the supplement of paper PMC5998384.

Data set [1] concerns HeLa Kyoto. Put plainly: melting temperature (median over replicates), in situ; higher = more thermally stable.
Data set [2] relates to HeLa Kyoto. The experiment in a line: solubility in G1/S (NP-40 vs SDS abundance) (log2 ratio); higher = more soluble. The note with it: cell cycle stage: G1/S.
The test system of data set [3] is HeLa Kyoto. The experiment in a line: thermal stability score vs G1/S (z-score of summed log2 fold changes over temperatures); higher = more thermally stable than in G1/S.
Data set [4] concerns HeLa Kyoto. The experiment in a line: solubility change mitosis vs G1/S (difference of NP-40 vs SDS log2 ratios) (log2 ratio difference); higher = more soluble in mitosis.
Where [5] appears, read: cell cycle stage: early G1 (4.5 h after nocodazole release).
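Wherever melting temperature (median over replicates), in situ is given: HeLa Kyoto cells synchronized by double thymidine or nocodazole block, proteins quantified by TMT10plex mass spectrometry, three independent biological replicates.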
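Wherever solubility change mitosis vs G1/S (difference of NP-40 vs SDS log2 ratios) is given: synchronized HeLa Kyoto cells (double thymidine block for G1/S, nocodazole release for mitosis), protein amounts in NP-40 versus SDS lysates quantified by mass spectrometry, three biological replicates.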
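Wherever solubility in G1/S (NP-40 vs SDS abundance) is given: HeLa Kyoto cells arrested at G1/S by double thymidine block, proteins quantified by TMT10plex mass spectrometry in mild NP-40 versus SDS extracts, three biological replicates.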
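Wherever thermal stability score vs G1/S (z-score of summed log2 fold changes over temperatures) is given: synchronized HeLa Kyoto cells, proteins quantified by TMT10plex mass spectrometry, three biological replicates, mitosis taken 0.5 h after nocodazole release, G1/S directly after double thymidine block.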

As for “MSFPKAPLKRFNDPSGCAPSPGAYDVKTLEVLKGPVSFQKSQRFKQQKESKQNLNVDKDTTLPASARKVKSSESKESQKNDKDLKILEKEIRVLLQERGAQDRRIQDLETELEKMEARLNAALREKTSLSANNATLEKQLIELTRTNELLKSKFSENGNQKNLRILSLELMKLRNKRETKMRGMMAKQEGMEMKLQVTQRSLEESQGKIAQLEGKLVSIEKEKIDEKSETEKLLEYIEEISCASDQVEKYKLDIAQLEENLKEKNDEILSLKQSLEENIVILSKQVEDLNVKCQLLEKEKEDHVNRNREHNENLNAEMQNLKQKFILEQQEREKLQQKELQIDSLLQQEKELSSSLHQKLCSFQEEMVKEKNLFEEELKQTLDELDKLQQKEEQAERLVKQLEEEAKSRAEELKLLEEKLKGKEAELEKSSAAHTQATLLLQEKYDSMVQSLEDVTAQFESYKALTASEIEDLKLENSSLQEKAAKAGKNAEDVQHQILATESSNQEYVRMLLDLQTKSALKETEIKEITVSFLQKITDLQNQLKQQEEDFRKQLEDEEGRKAEKENTTAELTEEINKWRLLYEELYNKTKPFQLQLDAFEVEKQALLNEHGAAQEQLNKIRDSYAKLLGHQNLKQKIKHVVKLKDENSQLKSEVSKLRCQLAKKKQSETKLQEELNKVLGIKHFDPSKAFHHESKENFALKTPLKEGNTNCYRAPMECQESWK [HMMR]”, the melting temperature with HeLa Kyoto [1] (cell cycle stage: G1/S) turned out to be 49.2 °C; in the data set with HeLa Kyoto [1] (cell cycle stage: mitosis) it was 50.1 °C. Also, in the data set with HeLa Kyoto [2], the “solubility in G1/S (log2)” value was found to be 0.497. For the same substance, the thermal stability score is -0.359 in the data set on HeLa Kyoto [3] (setting [5]) and -1.33 with HeLa Kyoto [3] (cell cycle stage: mitosis). For the same substance, in the data set with HeLa Kyoto [4], the “solubility change mitosis (log2)” value was found to be 0.189.
Regarding “MSLQWTAVATFLYAEVFVVLLLCIPFISPKRWQKIFKSRLVELLVSYGNTFFVVLIVILVLLVIDAVREIRKYDDVTEKVNLQNNPGAMEHFHMKLFRAQRNLYIAGFSLLLSFLLRRLVTLISQQATLLASNEAFKKQAESASEAAKKYMEENDQLKKGAAVDGGKLDVGNAEVKLEEENRSLKADLQKLKDELASTKQKLEKAENQVLAMRKQSEGLTKEYDRLLEEHAKLQAAVDGPMDKKEE [BCAP31]”, the melting temperature in the data set with HeLa Kyoto [1] (cell cycle stage: G1/S) and in the data set with HeLa Kyoto [1] (cell cycle stage: mitosis) was 55.5 °C throughout. The “solubility in G1/S (log2)” value with HeLa Kyoto [2] came out at 0.132. In addition, the thermal stability score in the data set on HeLa Kyoto [3] (setting [5]) is -4.24; in the data set with HeLa Kyoto [3] (cell cycle stage: mitosis), -4.65. Further, the “solubility change mitosis (log2)” value in the data set with HeLa Kyoto [4] was -0.101.
Consider “MSSSLGKEKDSKEKDPKVPSAKEREKEAKASGGFGKESKEKEPKTKGKDAKDGKKDSSAAQPGVAFSVDNTIKRPNPAPGTRKKSSNAEVIKELNKCREENSMRLDLSKRSIHILPSSIKELTQLTELYLYSNKLQSLPAEVGCLVNLMTLALSENSLTSLPDSLDNLKKLRMLDLRHNKLREIPSVVYRLDSLTTLYLRFNRITTVEKDIKNLSKLSMLSIRENKIKQLPAEIGELCNLITLDVAHNQLEHLPKEIGNCTQITNLDLQHNELLDLPDTIGNLSSLSRLGLRYNRLSAIPRSLAKCSALEELNLENNNISTLPESLLSSLVKLNSLTLARNCFQLYPVGGPSQFSTIYSLNMEHNRINKIPFGIFSRAKVLSKLNMKDNQLTSLPLDFGTWTSMVELNLATNQLTKIPEDVSGLVSLEVLILSNNLLKKLPHGLGNLRKLRELDLEENKLESLPNEIAYLKDLQKLVLTNNQLTTLPRGIGHLTNLTHLGLGENLLTHLPEEIGTLENLEELYLNDNPNLHSLPFELALCSKLSIMSIENCPLSHLPPQIVAGGPSFIIQFLKMQGPYRAMV [SHOC2]”, for which the results for the melting temperature with HeLa Kyoto [1] (cell cycle stage: G1/S) and in the data set with HeLa Kyoto [1] (cell cycle stage: mitosis) were 52.2 °C and 52.4 °C, respectively. The “solubility in G1/S (log2)” value with HeLa Kyoto [2] was found to be 0.421. The results for the thermal stability score with HeLa Kyoto [3] (setting [5]) and with HeLa Kyoto [3] (cell cycle stage: mitosis) were -0.46 and -1.35, respectively. The “solubility change mitosis (log2)” value in the data set with HeLa Kyoto [4] is -0.0856.
On to “MFCEKAMELIRELHRAPEGQLPAFNEDGLRQVLEEMKALYEQNQSDVNEAKSGGRSDLIPTIKFRHCSLLRNRRCTVAYLYDRLLRIRALRWEYGSVLPNALRFHMAAEEMEWFNNYKRSLATYMRSLGGDEGLDITQDMKPPKSLYIEVRCLKDYGEFEVDDGTSVLLKKNSQHFLPRWKCEQLIRQGVLEHILS [GINS1]”, for which the melting temperature with HeLa Kyoto [1] (cell cycle stage: G1/S) stood at 52.5 °C; with HeLa Kyoto [1] (cell cycle stage: mitosis) it was 51.7 °C. For the same substance, the “solubility in G1/S (log2)” value in the data set on HeLa Kyoto [2] was -0.0577. The thermal stability score is -0.0841 in the data set with HeLa Kyoto [3] (setting [5]) and -0.424 with HeLa Kyoto [3] (cell cycle stage: mitosis). In addition, the “solubility change mitosis (log2)” value in the data set with HeLa Kyoto [4] was -0.00378.
Regarding CPS1, the melting temperature was determined as 53.1 °C in the data set on HeLa Kyoto [1] (cell cycle stage: G1/S) and 53.2 °C with HeLa Kyoto [1] (cell cycle stage: mitosis). The “solubility in G1/S (log2)” value in the data set on HeLa Kyoto [2] amounted to 0.0669. For the same substance, the figures for the thermal stability score in the data set with HeLa Kyoto [3] (setting [5]) and in the data set with HeLa Kyoto [3] (cell cycle stage: mitosis) were -0.953 and -3.38, respectively. For the same substance, in the data set on HeLa Kyoto [4], the “solubility change mitosis (log2)” value is -0.13.
On to “MDETSPLVSPERAQPPDYTFPSGSGAHFPQVPGGAVRVAAAAGSGPSPPGSPGHDRERQPLLDRARGAAAQGQTQTVAAQAQALAAQAAAAAHAAQAHRERNEFPEDPEFEAVVRQAELAIERCIFPERIYQGSSGSYFVKDPQGRIIAVFKPKNEEPYGHLNPKWTKWLQKLCCPCCFGRDCLVLNQGYLSEAGASLVDQKLELNIVPRTKVVYLASETFNYSAIDRVKSRGKRLALEKVPKVGQRFNRIGLPPKVGSFQLFVEGYKDADYWLRRFEAEPLPENTNRQLLLQFERLVVLDYIIRNTDRGNDNWLIKYDCPMDSSSSRDTDWVVVKEPVIKVAAIDNGLAFPLKHPDSWRAYPFYWAWLPQAKVPFSQEIKDLILPKISDPNFVKDLEEDLYELFKKDPGFDRGQFHKQIAVMRGQILNLTQALKDNKSPLHLVQMPPVIVETARSHQRSSSESYTQSFQSRKPFFSWW [PI4K2A]”, for which the melting temperature was determined as 53.9 °C with HeLa Kyoto [1] (cell cycle stage: G1/S) and 53.6 °C in the data set on HeLa Kyoto [1] (cell cycle stage: mitosis). The “solubility in G1/S (log2)” value in the data set with HeLa Kyoto [2] came out at 0.202. The thermal stability score in the data set on HeLa Kyoto [3] (setting [5]) was 1.81; in the data set with HeLa Kyoto [3] (cell cycle stage: mitosis) it was -1.09. Also, the “solubility change mitosis (log2)” value with HeLa Kyoto [4] is -0.137.
On to “MLRAPGCLLRTSVAPAAALAAALLSSLARCSLLEPRDPVASSLSPYFGTKTRYEDVNPVLLSGPEAPWRDPELLEGTCTPVQLVALIRHGTRYPTVKQIRKLRQLHGLLQARGSRDGGASSTGSRDLGAALADWPLWYADWMDGQLVEKGRQDMRQLALRLASLFPALFSRENYGRLRLITSSKHRCMDSSAAFLQGLWQHYHPGLPPPDVADMEFGPPTVNDKLMRFFDHCEKFLTEVEKNATALYHVEAFKTGPEMQNILKKVAATLQVPVNDLNADLIQVAFFTCSFDLAIKGVKSPWCDVFDIDDAKVLEYLNDLKQYWKRGYGYTINSRSSCTLFQDIFQHLDKAVEQKQRSQPISSPVILQFGHAETLLPLLSLMGYFKDKEPLTAYNYKKQMHRKFRSGLIVPYASNLIFVLYHCENAKTPKEQFRVQMLLNEKVLPLAYSQETVSFYEDLKNHYKDILQSCQTSEECELARANSTSDEL [MINPP1]”, for which the melting temperature in the data set with HeLa Kyoto [1] (cell cycle stage: G1/S) turned out to be 54.4 °C; in the data set with HeLa Kyoto [1] (cell cycle stage: mitosis), 55.7 °C. The “solubility in G1/S (log2)” value in the data set on HeLa Kyoto [2] is 0.459. Besides, the results for the thermal stability score in the data set with HeLa Kyoto [3] (setting [5]) and with HeLa Kyoto [3] (cell cycle stage: mitosis) were 4.83 and 4.74, respectively. In the data set with HeLa Kyoto [4], the “solubility change mitosis (log2)” value is -0.069.
On to “MSHGHSHGGGGCRCAAEREEPPEQRGLAYGLYLRIDLERLQCLNESREGSGRGVFKPWEERTDRSKFVESDADEELLFNIPFTGNVKLKGIIIMGEDDDSHPSEMRLYKNIPQMSFDDTEREPDQTFSLNRDLTGELEYATKISRFSNVYHLSIHISKNFGADTTKVFYIGLRGEWTELRRHEVTICNYEASANPADHRVHQVTPQTHFIS [PITHD1]”, for which the melting temperature with HeLa Kyoto [1] (cell cycle stage: G1/S) was determined as 56.2 °C; with HeLa Kyoto [1] (cell cycle stage: mitosis), 59.5 °C. The “solubility in G1/S (log2)” value in the data set with HeLa Kyoto [2] was 0.0556. Also, the figures for the thermal stability score in the data set with HeLa Kyoto [3] (setting [5]) and in the data set on HeLa Kyoto [3] (cell cycle stage: mitosis) were -1.84 and -2.51, respectively. In addition, the “solubility change mitosis (log2)” value in the data set with HeLa Kyoto [4] is -0.108.
For “MAAVLKPVLLGLRDAPVHGSPTGPGAWTASKLGGIPDALPTVAAPRPVCQRCGQPLALVVQVYCPLEGSPFHRLLHVFACACPGCSTGGARSWKVFRSQCLQVPEREAQDAQKQGNSLAAEDWCEGADDWGSDTEEGPSPQFTLDFGNDASSAKDVDWTARLQDLRLQDAVLGAAHPVPPGLPLFLPYYICVADEDDYRDFVNLDHAHSLLRDYQQREGIAMDQLLSQSLPNDGDEKYEKTIIKSGDQTFYKFMKRIAACQEQILRYSWSGEPLFLTCPTSEVTELPACSQCGGQRIFEFQLMPALVSMLKSANLGLSVEFGTILVYTCEKSCWPPNHQTPMEEFCIIQEDPDELLFK [PDCD2L]”, the melting temperature is 48.9 °C in the data set on HeLa Kyoto [1] (cell cycle stage: G1/S) and 49.8 °C with HeLa Kyoto [1] (cell cycle stage: mitosis). For the same substance, the “solubility in G1/S (log2)” value in the data set on HeLa Kyoto [2] was 0.287. Further, the thermal stability score with HeLa Kyoto [3] (setting [5]) came to 0.0844; in the data set with HeLa Kyoto [3] (cell cycle stage: mitosis) it was 0.849. Besides, in the data set on HeLa Kyoto [4], the “solubility change mitosis (log2)” value was determined as 0.0741.
